Results on one substance are retold here after patent US20040077017A1.

The test has as its target Fc3(1) (human) (UniProt P01860). The test is described as follows: Biacore 2000 SPR, Fc3(1) immobilized on CM5 chip, 25 C, HBS. A general note: Surface plasmon resonance follows binding to a sensor surface in real time, without labels.

The substance “unlabeled, wild-type Z-ABD (from UniProt P19909 254-299) (designed binder)” displayed a Kd of 90 nM.

By Kd is commonly meant the concentration at which binding is half-saturated. Read a high Kd as a looser complex.
